In assay [1] the test system is human corneal epithelial (HCE) cell line. Description: TNF-α-induced cell death in HCE cells (MTT cell viability). The assay is classed as cell-based. The following applies: for protection from TNF-induced cell death (viability): 18 or 30 hours, FIG. 10. Here is the method: Lacritin-induced proliferation and calcium signaling was studied in the human corneal epithelial (HCE) cell line. HCE cells were grown at 37° C. in DMEM F/12 supplemented with 10% FBS and 50 μg/ml gentamicin. Each experiment was done in a dose- and time-dependent manner using TNF-α (5-20 ng/ml) and lacritin (1-10 nM). Cell viability was measured spectrophotometrically at an absorbance of 570 nm using the MTT assay. Caspase-8 activity was detected fluorometrically by measuring cleavage of the fluorogenic substrate IETD-pNA at an excitation wavelength of 405 nm. Lacritin-induced cell proliferation was studied by H3-thymidine incorporation and via fluorescence-based detection of PKC, PLC and cAMP. Calcium signaling was detected by confocal microscopy of Fluo-4 loaded cells.

Assay [2] has as its system caspase-9. The assay can be described thus: Caspase-9 activity in human corneal epithelial cells treated with TNF-α. The assay is classed as cell-based. The settings on record: lacritin polypeptides 10 nM. The procedure:
FIG. 13 graphically illustrates the ability of lacritin polypeptides (10 nM) to block TNFα induced caspase-9 activity in human corneal epithelial cells. The ordinate represents relative fluorescence units. White bars indicate 6 hours and diagonally-hatched bars indicate 9 hours.
Caspase-9 activity was measured in cells treated with various combinations of TNF-α, fragments of lacritin, and the PKC inhibitor Go6976. […] The PKC-α inhibitor Go6976 and C-25 fail to block this increase of the downstream initiator caspase-9.

The test system of assay [3] is PKCα. Description: PKCα translocation in HSG cells (immunofluorescence, fractionation). The assay is classed as cell-based, human. The settings on record: for PKCα translocation: 15 min after treatment. The source says:
In order to dissect the molecular pathways leading to the cell survival by lacritin, protein kinases and transcriptional factors were studied by Western blotting and immunofluorescence microscopy.
Images were acquired at 2-3 s intervals using LaserSharp2000 software (Bio-Rad) and store on disc for later analysis.

Assay [4] relates to NFATC1. Description: NFATC1 translocation in HSG cells (immunofluorescence). In kind it is cell-based, human. The following applies: for NFATC1 translocation: HSG and corneal epithelial cells. An excerpt:
In order to dissect the molecular pathways leading to the cell survival by lacritin, protein kinases and transcriptional factors were studied by Western blotting and immunofluorescence microscopy. […] On the other hand, there were increased activities of transcriptional factors such as nuclear factor of activated T-cells (NFAT) and NF-kappaB. In FIG. 4, translocation of PKC alpha and NFAT was detected by immunofluorescence coupled with confocal microscopic imaging. In resting HSG cells (left three images), PKC alpha distributes mainly in cytosol and membrane. Similarly, NFATc1 was also found to localize largely in cytosol. Cellular co-location of PKC alpha and NFATc1 is apparent upon merging the two immunofluorescent images, as the merged cy3 and FITC labels produce distinctive yellow color.
Images were acquired at 2-3 s intervals using LaserSharp2000 software (Bio-Rad) and store on disc for later analysis. For translocation assays, HSG cells […] phorbol 12-myristate 13-acetate, […], then washed with phosphate-buffered saline, formaldehyde-fixed, blocked with phosphate-buffered saline containing 1% bovine serum albumin and 10% goat serum, incubated with anti-PKCα (C-20) or anti-NFATC1 (mab 7A6) (both from Santa Cruz Biotechnology Inc.; Santa Cruz, Calif.) followed by secondary Cy3-, FITC- or Alexa488-labeled antibodies and confocal microscopic visualization (Bio-Rad Radiance2100).

For assay [5], the system named is PKCα. Description: Phospho-PKCα blot of HSG cell lysates. The assay is classed as cell-based, human. The following applies: for concentration of optimal dephosphorylation: increasing molar levels. Here is the method: For phosphotyrosine blotting and mitogenesis assays, cells in serum-containing media were seeded overnight in 24-well plates at a density of 0.5×10^5 cells/mm^2 corresponding to 20-30% confluency after cell attachment, incubated in serum-free media without supplements for 24 h (phosphotyrosine) or washed with serum-free media without supplements three times (mitogenesis) and incubated with lacritin (1-1000 nM), or positive controls EGF (1.6 nM) and 10% fetal bovine serum, or negative controls bovine serum albumin or no additive in serum-free media without supplements for the indicated times (phosphotyrosine) or 30 h (mitogenesis). For phosphotyrosine assays, cells were extracted in 1% NP40 containing sodium vanadate (2 mg/ml), DTT (5 mg/ml), protease inhibitors, 50 mM HEPES, 100 mM NaCl, and 2 mM EDTA; then separated by 10% SDS PAGE, transferred and blotted. The following antibodies (Cell Signaling Technology, Beverly Mass.) were tested: antiphosphotyrosine antibody (P-Tyr-100), anti-phospho-PKC αβII, anti-PKCα, anti-phospho-PKCδ, anti-phospho-PKC (pan), anti-p44/42 MAPK, anti-phospho-Raf, anti-phospho-SAPK/JNK, anti-phospho-p38 Map kinase, anti-phospho-Raf, anti-phospho-Akt, anti-phospho-CaMKII, anti-phospho-MARCKS, or anti-tubulin (loading control). After washing, bound antibodies were detected with peroxidase-labeled secondary antibody and ECL. With the exception of at least nine proteins in the P-Tyr-100 blot (FIG. 1), none of the effectors tested above appeared to be phospho-activated during lacritin signaling (not shown). For mitogenesis (Hussaini et al., '00), [^3H]-thymidine (2 mCi/ml) was added for the next 6 h. Incorporation was stopped with ice-cold phosphate buffered saline and followed by addition of cold and then room temperature trichloracetic acid (10%) for 10 min each, washing of cells with phosphate buffered saline, solubilization with 1 N sodium hydroxide, neutralization with 1 N hydrochloric acid, addition of scintillation fluid and then quantitation in a scintillation counter. To deplete PKCα in HSG cells, a pool of four PKCα-specific siRNAs (100 nM) were transfected via LipofectAMINE 2000 in Opti-MEMI Reduced Serum Medium (Invitrogen, Grand Island N.Y.) without serum and antibiotics according to manufacturer's instructions. Each of the four siRNAs was also individually transfected. In negative controls, cells were transfected with a pool of four lamin-specific siRNAs (Upstate LLC, Charlottesville Va.; Dharmacon Inc, Lafayette Colo.). Seventy-two hours post-transfection, mitogenesis was assessed by co-addition of 10 […] lacritin and [^3H]-thymidine (2 mCi/ml) (Amersham, Piscataway N.J.) for 24 hrs. PKCα depletion was confirmed by Western blotting.
We imaged PKCα in cells 15 min after treatment (FIG. 8). Nonmitogenic construct/fragment C-25 (10 nM) had no effect, leaving PKCa diffusely distributed throughout the cytoplasm. […] The phosphorylation state of PKCα influences its translocation site. Hyperphosphorylated PKCα becomes associated with the plasma membrane whereas hypophosphorylated or dephosphorylated PKCα is known to translocate to the perinuclear Golgi region. To determine if the latter is true and if so over what time course, we treated cells with lacritin, N-24 and C-25, and then blotted cell lysates for phospho-PKC ? (FIG. 8B). 10 nM lacritin promotes PKC ? dephosphorylation within 1 min of addition. This form is sustained for at least 15 min, but by 30 min has returned to baseline phosphorylation. Dephosphorylation triggered by increasing molar levels of lacritin or N-24 mirrored the proliferation response with optimal dephosphorylation at 10 nM. Non-mitogenic C-25 had no effect, whereas positive control 4β-phorbol 12-myristate 13-acetate-promoted hyperphosphorylation.

Where [6] appears, read: lacritin treatment for 1 hour, immunofluorescence.

These results are taken from US7648964B2, “Use of lacritin in promoting ocular cell survival” (University of Virginia Patent Foundation, priority 2004, dated 2010).

For `Cn1c2ccccc2c2c3c(c4c5ccccc5n(CCC#N)c4c21)CNC3=O` [Go 6976], the “protection from TNF-induced cell death (viability)” value (from here on “protection”) in assay [1] is reported as “no effect on viability loss”. Further, the “effect on TNF-α-induced caspase-9 activity” value in assay [2] is recorded as “fail to block”. Further, in assay [3] (pertussis toxin 100 ng/ml, Go 6976, U73122, U73343, cyclosporine 1 μM, nifedipine 10 μM), the “effect on lacritin-dependent PKCα translocation” value is on record as “inhibited”. Further, the “effect on lacritin-dependent NFATC1 translocation” value in assay [4] (cyclosporine 1 μM, nifedipine 10 μM) is “inhibited”. Moreover, the “effect on lacritin-dependent PKCα dephosphorylation” value in assay [5] (pertussis toxin 100 ng/ml, Go 6976, U73122, U73343 1 μM) was “inhibited”.

B1: lacritin: recombinant human lacritin from E. coli; mature 119 residue fragment (SEQ ID NO:10) of native lacritin SEQ ID NO:4 (protein, listed as Homo sapiens)
chain: EDASSDSTGADPAQEAGTSKPNEEISGPAEPASPPETTTTAQETSAAAVQGTAKVTSSRQELNPLKSIVEKSILLTEQALAKAGKGMHGGVPGGKQFIENGSEFAQKLLKKFSLLKPWA
In the case of B1, the “protection” value in assay [1] was “protect”. Also, the “effect on TNF-α-induced cell death” value in assay [1] (lacritin 10 nM pretreatment) is listed as “attenuated”. The “effect on TNF-α-induced caspase-9 activity” value in assay [2] is “blocked”. Further, the PKCα translocation entry in assay [3] was “shifted PKCα primarily to the perinuclear Golgi region”. Also, the “PKC alpha at the cell membrane” value in assay [3] (about 5 minutes lacritin treatment, subcellular fractionation, Western blotting) is listed as “very little PKC alpha was detected at the cell membrane”. Also, the PKC alpha localization result in assay [3] (setting [6]) is reported as “localize outside of the nuclear envelope”. Further, the NFATC1 translocation result in assay [4] is “translocates into the nucleus”. The NFAT localization entry in assay [4] (setting [6]) is given as “translocates into nuclear compartment”. Also, in assay [5] (10 nM lacritin), the “time dephosphorylated form is sustained” value is listed as “at least 15 min”, the “time of return to baseline phosphorylation” value is not above 30 min and the “time to PKCα dephosphorylation” value was not above 1 min. Also, in assay [5], the “concentration of optimal dephosphorylation” value was 10 nM.

B2: N-24: deletion mutant comprising a deletion of the 24 amino terminal amino acids of lacritin (protein)
chain: DSTGADPAQEAGTSKPNEEISGPAEPASPPETTTTAQETSAAAVQGTAKVTSSRQELNPLKSIVEKSILLTEQALAKAGKGMHGGVPGGKQFIENGSEFAQKLLKKFSLLKPWA
modifications: homo sapiens
notes: deletion mutant comprising a deletion of the 24 amino terminal amino acids of lacritin
Regarding B2, the “protection” value in assay [1] is “protect”. The “effect on TNF-α-induced caspase-9 activity” value in assay [2] is recorded as “blocked”. Also, in assay [3], the PKCα translocation result is on record as “shifted PKCα primarily to the perinuclear Golgi region”. Also, in assay [4], the NFATC1 translocation entry is on record as “translocates into the nucleus”. For the same molecule, the “concentration of optimal dephosphorylation” value in assay [5] was 10 nM.
